Test results as given in publication PMC8754647, “A minimal motif for sequence recognition by mitochondrial transcription factor A (TFAM)”.

T1: TFAM (UniProt Q00059 43-246)
T1 sequence: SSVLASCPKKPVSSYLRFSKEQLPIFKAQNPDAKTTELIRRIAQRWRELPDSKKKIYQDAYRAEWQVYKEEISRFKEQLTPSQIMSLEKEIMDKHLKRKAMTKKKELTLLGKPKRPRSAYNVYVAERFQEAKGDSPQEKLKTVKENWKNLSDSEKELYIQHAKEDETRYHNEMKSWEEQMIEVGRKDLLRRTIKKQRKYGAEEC


Tests used:
TFAM [1] = molecular target: T1, TFAM; assay: EMSA; 500 mM NaCl; apparent Kd; EMSA: 10 mM HEPES pH 8.0, 500 mM NaCl, 2 mM DTT, 130 ug/ml BSA, 5% glycerol, 100 nM DNA, 30 min on ice then 10 min RT; FP: 10 mM HEPES pH 8.0, 150-400 mM NaCl; details: protein: recombinant; tags: His-MBP N-terminal, removed by TEV; label: 5'-Cy3 on strand 1 (EMSA); 6-FAM (FP); blunt
TFAM [2] = molecular target: T1, TFAM; assay: fluorescence polarization; 300 mM NaCl; EMSA: 10 mM HEPES pH 8.0, 500 mM NaCl, 2 mM DTT, 130 ug/ml BSA, 5% glycerol, 100 nM DNA, 30 min on ice then 10 min RT; FP: 10 mM HEPES pH 8.0, 150-400 mM NaCl; details: protein: recombinant; tags: His-MBP N-terminal, removed by TEV; label: 5'-Cy3 on strand 1 (EMSA); 6-FAM (FP); blunt
TFAM [3] = molecular target: T1, TFAM; assay: fluorescence polarization; 350 mM NaCl; EMSA: 10 mM HEPES pH 8.0, 500 mM NaCl, 2 mM DTT, 130 ug/ml BSA, 5% glycerol, 100 nM DNA, 30 min on ice then 10 min RT; FP: 10 mM HEPES pH 8.0, 150-400 mM NaCl; details: protein: recombinant; tags: His-MBP N-terminal, removed by TEV; label: 5'-Cy3 on strand 1 (EMSA); 6-FAM (FP); blunt
TFAM [4] = molecular target: T1, TFAM; assay: fluorescence polarization; 150 mM NaCl; EMSA: 10 mM HEPES pH 8.0, 500 mM NaCl, 2 mM DTT, 130 ug/ml BSA, 5% glycerol, 100 nM DNA, 30 min on ice then 10 min RT; FP: 10 mM HEPES pH 8.0, 150-400 mM NaCl; details: protein: recombinant; tags: His-MBP N-terminal, removed by TEV; label: 5'-Cy3 on strand 1 (EMSA); 6-FAM (FP); blunt
TFAM [5] = molecular target: T1, TFAM; assay: fluorescence polarization; 200 mM NaCl; EMSA: 10 mM HEPES pH 8.0, 500 mM NaCl, 2 mM DTT, 130 ug/ml BSA, 5% glycerol, 100 nM DNA, 30 min on ice then 10 min RT; FP: 10 mM HEPES pH 8.0, 150-400 mM NaCl; details: protein: recombinant; tags: His-MBP N-terminal, removed by TEV; label: 5'-Cy3 on strand 1 (EMSA); 6-FAM (FP); blunt
TFAM [6] = molecular target: T1, TFAM; assay: fluorescence polarization; 250 mM NaCl; EMSA: 10 mM HEPES pH 8.0, 500 mM NaCl, 2 mM DTT, 130 ug/ml BSA, 5% glycerol, 100 nM DNA, 30 min on ice then 10 min RT; FP: 10 mM HEPES pH 8.0, 150-400 mM NaCl; details: protein: recombinant; tags: His-MBP N-terminal, removed by TEV; label: 5'-Cy3 on strand 1 (EMSA); 6-FAM (FP); blunt
TFAM [7] = molecular target: T1, TFAM; assay: X-ray crystallography; 2.7 A; EMSA: 10 mM HEPES pH 8.0, 500 mM NaCl, 2 mM DTT, 130 ug/ml BSA, 5% glycerol, 100 nM DNA, 30 min on ice then 10 min RT; FP: 10 mM HEPES pH 8.0, 150-400 mM NaCl; details: protein: recombinant; tags: His-MBP N-terminal, removed by TEV
TFAM [8] = molecular target: T1, TFAM; assay: EcoRI cleavage protection; 10 mM MgCl2, 50 mM NaCl; EMSA: 10 mM HEPES pH 8.0, 500 mM NaCl, 2 mM DTT, 130 ug/ml BSA, 5% glycerol, 100 nM DNA, 30 min on ice then 10 min RT; FP: 10 mM HEPES pH 8.0, 150-400 mM NaCl; details: protein: recombinant; tags: His-MBP N-terminal, removed by TEV; blunt
TFAM [9] = molecular target: T1, TFAM; assay: X-ray crystallography; 2.84 A; one TFAM bridges two DNA molecules; EMSA: 10 mM HEPES pH 8.0, 500 mM NaCl, 2 mM DTT, 130 ug/ml BSA, 5% glycerol, 100 nM DNA, 30 min on ice then 10 min RT; FP: 10 mM HEPES pH 8.0, 150-400 mM NaCl; details: protein: recombinant; tags: His-MBP N-terminal, removed by TEV; 2 DNA molecules bridged per TFAM; ends stacked

Binder | Kd (TFAM [2]) | Kd (TFAM [3]) | Kd (TFAM [4]) | Kd (TFAM [5]) | Kd (TFAM [6]) | other results
DNAGG (dsDNA) DNA 1: AAAAAGAACCATTTGGATACATAGGTAT DNA 2: ATACCTATGTATCCAAATGGTTCTTTTT | 1210 ± 113 nM | 5180 ± 502 nM | 13.5 ± 0.1 nM | 55.5 ± 6 nM | 259 ± 48.2 nM | Kd (TFAM [1]): 86.1 ± 14.3 nM
DNAAA (dsDNA) DNA 1: AAAAAGAATCATTTGGATATATAGGTAT DNA 2: ATACCTATATATCCAAATGATTCTTTTT | 877 ± 38.5 nM | 3850 ± 425 nM | 12 ± 1.5 nM | 79 ± 1.4 nM | 287 ± 15.7 nM | 
LSP_B (dsDNA) DNA 1: AATTGTCAGTGGGGGGTTGATT DNA 2: AATCAACCCCCCACTGACAATT |  |  |  |  |  | binding result (TFAM [7]): binds
DNA2GG (dsDNA) DNA 1: CTGAAGCCAGTTACCTTTGAAAAAAGAGTTGGTAGCTCTTGATCCAGGAATTCAACCACCGCTGGTAGCGGTGGTTTTTTTATTTGCAAGCAGCAGATTA DNA 2: TAATCTGCTGCTTGCAAATAAAAAAACCACCGCTACCAGCGGTGGTTGAATTCCTGGATCAAGAGCTACCAACTCTTTTTTCAAAGGTAACTGGCTTCAG |  |  |  |  |  | binding result (TFAM [8]): binds
NS2 (dsDNA) DNA 1: ATCGGAAAGATAATCGAGAATC DNA 2: GATTCTCGATTATCTTTCCGAT |  |  |  |  |  | binding result (TFAM [9]): binds
